The chains are these.
B1: unnamed (protein)
chain 1: QVQLVQSGAEVKKPGASVKVSCKASGYIFSNYWIQWVRQAPGQGLEWMGEILPGSGSTEYTENFKDRVTMTRDTSTSTVYMELSSLRSEDTAVYYCARDRFDVASGSSFDFWGQGTLVTVSS
chain 2: DIQMTQSPSSLSASVGDRVTITCGASENIYGALNWYQQKPGKAPKLLIYGATNLADGVPSRFSGSGSGTDFTLTISSLQPEDFATYYCQNVLNTPLTFGQGTKVEIK
B2: unnamed (protein)
chain 1: QVQLVQSGAEVKKPGASVKVSCKASGYIFSNYWIQWVRQAPGQGLEWMGEILPGSGSTEYTENFKDRVTMTRDTSTSTVYMELSSLRSEDTAVYYCARYYYGDTPTIYFDYWGQGTLVTVSS
chain 2: B1 chain 2
B3: unnamed (protein)
chain 1: B1 chain 1 with F101S, D102Y, V103G, A104D, G106S, S107W, S108A, F109L, F111A
chain 2: B1 chain 2
B4: unnamed (protein)
chain 1: B2 chain 1 with Y99L, Y100R, T106F
chain 2: B1 chain 2
B5: unnamed (protein)
chain 1: B2 chain 1 with T106F
chain 2: B1 chain 2
B6: unnamed (protein)
chain 1: B2 chain 1 with Y101W, T106I
chain 2: B1 chain 2
B7: unnamed (protein)
chain 1: B2 chain 1 with Y100R, T106F
chain 2: B1 chain 2
B8: unnamed (protein)
chain 1: B2 chain 1 with Y100R
chain 2: B1 chain 2
B9: unnamed (protein)
chain 1: B2 chain 1 with Y100R, T106Y
chain 2: B1 chain 2
B10: unnamed (protein)
chain 1: B2 chain 1 with Y99L, Y100R, Y101W, T106I
chain 2: B1 chain 2
B11: unnamed (protein)
chain 1: B2 chain 1 with Y100R, Y101W, T106I
chain 2: B1 chain 2
B12: unnamed (protein)
chain 1: B2 chain 1 with Y100R, Y101W, T106Y
chain 2: B1 chain 2
B13: unnamed (protein)
chain 1: B2 chain 1 with Y101W, T106Y
chain 2: B1 chain 2
B14: unnamed (protein)
chain 1: B2 chain 1 with Y99L, Y100R
chain 2: B1 chain 2
B15: unnamed (protein)
chain 1: B2 chain 1 with Y99F, Y100R, T106I
chain 2: B1 chain 2
B16: unnamed (protein)
chain 1: B2 chain 1 with Y99L, T106Y
chain 2: B1 chain 2
B17: unnamed (protein)
chain 1: QVQLVQSGAEVKKPGASVKVSCKASGYTFTSSYINWVRQAPGQGLEWMGTINPVTGNTSYAQKFQGRVTMTRDTSISTAYMELSRLRSDDTAVYYCARGGYFDYWGQGTLVTVSS
chain 2: QSALTQPASVSGSPGQSITISCTGTSSDVGSYNYVNWYQQHPGKAPKLMIYGVSKRPSGVSNRFSGSKSGNTASLTISGLQAEDEADYYCGTFAGGSYYGVFGGGTKLTVL
B18: unnamed (protein)
chain 1: B17 chain 1 with Y33G, G100N, F102M
chain 2: B17 chain 2
B19: unnamed (protein)
chain 1: B17 chain 1 with S32T
chain 2: B17 chain 2

Among the data in the FLAb antibody collection (doi:10.1101/2023.12.08.570889) are Kd values, retold here.

Substitutions are numbered along the chain they refer to.

The target in the first test is C5, P01031. The experiment in a line: Kd (SPR).
The molecule B1 displayed a Kd of 325 nM.

As for B2, the Kd is 111 nM.

Regarding B3, the Kd worked out at 3980 nM.

As for B4, the Kd amounted to 937 nM.

B5 yielded a Kd of 96.3 nM.

As to B6, the Kd is 162 nM.

On to B7, for which the Kd was found to be 385 nM.

B8: the equilibrium dissociation constant (Kd) is 689 nM.

Take B9: the Kd was 583 nM.

In turn, B10 came in with a Kd of 749 nM.

In turn, B11 came in with a Kd of 502 nM.

In the case of B12, the Kd amounted to 850 nM.

In turn, B13 came in with a Kd of 204 nM.

B14: the dissociation constant Kd is 469 nM.

B15 returned an equilibrium dissociation constant (Kd) of 280 nM.

In the case of B16, the Kd amounted to 492 nM.

The target in the next test is ACVR2B, Q13705. The experiment in a line: Kd (SPR).
Chain of ACVR2B, Q13705 (Q13705 whole entry, looked up): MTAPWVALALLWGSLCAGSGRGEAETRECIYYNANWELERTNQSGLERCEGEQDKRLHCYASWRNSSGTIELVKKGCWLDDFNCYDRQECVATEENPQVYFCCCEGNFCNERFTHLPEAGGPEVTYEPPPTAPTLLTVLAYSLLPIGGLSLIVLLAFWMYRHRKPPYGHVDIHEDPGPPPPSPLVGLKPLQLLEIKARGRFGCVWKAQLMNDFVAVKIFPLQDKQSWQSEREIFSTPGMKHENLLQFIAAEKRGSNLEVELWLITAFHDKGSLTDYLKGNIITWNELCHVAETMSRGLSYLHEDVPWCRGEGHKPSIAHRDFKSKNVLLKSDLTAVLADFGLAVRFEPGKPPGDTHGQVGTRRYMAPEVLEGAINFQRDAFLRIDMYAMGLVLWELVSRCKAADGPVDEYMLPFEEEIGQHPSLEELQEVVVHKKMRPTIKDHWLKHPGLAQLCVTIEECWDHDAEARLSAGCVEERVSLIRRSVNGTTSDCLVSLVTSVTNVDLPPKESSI
In turn, B17 yielded a Kd of 10.3 nM.

B18 gave a Kd of 0.581 nM.

B19: the Kd was 7.87 nM.
